Experimental findings from patent publication US20220112288A1 (published 2022) are described below.

The labels stand for the following.
B1: CD8B347 (antibody, human IgG1, kappa)
heavy: not shown
light: DIQMTQSPASLSASVGETVTITCRASGNIHNYLAWYQQKQGKSPQLLVFNAETLADGVPSRFSGSGSGTQFSLKINSLQPEDFGTYYCQHFWNNPLTLGAGTKLELKRTVAAPSVFIFPPSDEQLKSGTASVVCLLNNFYPREAKVQWKVDNALQSGNSQESVTEQDSKDSTYSLSSTLTLSKADYEKHKVYACEVTHQGLSSPVTKSFNRGEC
notes: Full-length human IgG1, kappa; V regions recovered from mouse hybridoma
B2: CD8B356 (antibody, human IgG1, kappa, V domains shown)
VH: DVQLQESGPGLVKPSQSLSLTCSVTGYSITSGYYWNWIRQFPGNKLEWMGYISYDGSNNYNPSLKNRISITRDTSKNQFFLKLNSVTTEDTATYYCVRNHGDAMDYWGQGTSVTVSS
VL: DIVLTQSQKFMSTTVGDRVSITCKASQNVGTAVAWYQQKPGQSPKLLIYSASYRYTGVPDRFTGSGSGTHFTLTISNMQSEDLADYFCQQYSSYLTFGSGTKLEIKR
notes: as for B1
B3: CD8B269 (antibody, human IgG1, kappa, V domains shown)
VH: DVQLQESGPGLVKPSQSLSLTCSVTGYSITSGYYWNWIRQFPGNKLEWMGYISYDGSNNYNPSLKNRISITRDTSKNQFFLKLNSVTTEDTATYYCVRNHGDAMDHWGQGTTLTVSS
VL: DIVMTQSQKFMSTSVGDRVRVTCKASQNVGTDVAWYQQKPGQSPKALIYSASYRYSGVPDRFTGSGSGTDFTLTISDVQSEDLAEYFCQQYKSYPLTFGAGTKLELKR
notes: as for B1
B4: CD8B251 (antibody, human IgG1, kappa, V domains shown)
VH: QVQLKGSGPGLVQPSQSLSITCTVSGFSLTTYAVHWVRQSPGKGLEWLGVIWSGGSTDYNAAFISRLSISKDNSKSQVFFKMNSLQADDTAIYYCARHSYYHYNAMDNWGQGTSVTVSS
VL: DIKMTQSQKFMSTTVGDRVSITCKASQNVGTAVAWYQQKPGQSPKLLIYSASNRYTGVPDRFTGSGSGTDFTLTISNMQSEDLADYFCQQYSSYPFTFGSGTKLEIKR
notes: as for B1
B5: CD8B303 (antibody, human IgG1, kappa, V domains shown)
VH: QVQLKESGPGLVAPSQSLSITCTVSGFSLSIYSIHWVRQPPGKGLEWLGMIWGGGSTDYNSTLNSRLSIIKDNSKSQVFLKMNSLQTDDTAMYYCARNPHHYGGSTGAMDYWGQGTTVTVSS
VL: DVQMIQSPSSLSASLGGTVTITCKASQDIKKYMAWYQHKPGKGPRLLIHYTSSLQPGIPSRFSGSGSGRDYYFSISNLEPEDIATYFCLQYDNLFTFGSGTKLELKR
notes: as for B1
B6: CD8B182 (antibody, human IgG1, kappa, V domains shown)
VH: EVQLQQSGAALAKPGTSVKMSCKASGYTFTSYWMNWVRQRPGQGLEWIGAVNPTNYYTEYIQKFKDKAILTADKSSSTAYMHLSGLTSEDSAVYYCARSGLYNTNHLAWFAYWGQGTTVTVSS
VL: DIKMTQSPASLSASVGETVTITCRASENIHNYLAWYQQIQGKSPQLLVYNAKTLANGVPSRFSGSASGTQFSLTINSLQPEDFGSYYCQHFWTTPLTFGAGTKLELKR
notes: as for B1
B7: CD8B310 (antibody, human IgG1, kappa, V domains shown)
VH: QVQLKESGPGLVAPSQSLSITCTVSGFSLTNYAVHWVRQSPGKGLEWLGVIWTDGSTDYNAGFISRLSISKDNSKSQVFFKMNSLQADDTAIYYCARNNGYFPAFFAYWGQGTTVTVSS
VL: DVLMTQTPLSLPVSLGDQASISCRSSQTIVHSNGNTYLEWYLQKPGQSPKLLMYKVSNRFSGVPDRFGGSGSGTDFTLKISRVEAEDLGVYYCFQGSHAPFTFGSGTKLEIKR
notes: as for B1
B8: CD8B271 (antibody, human IgG1, kappa, V domains shown)
VH: DVQLQESGPGLVAPSQSLSITCTVSGFSLSIYSIHWVRQPPGKGLEWLGMIWGGGDTDYNSALKSRLSISKDNSESQVFLKMNSLQTDDTAMYYCARNPHYYGGTYEYFDVWGTGTTVTVSS
VL: DIQMTQTTSSLSASLGDRVTISCSASQGISNYLNWYQQKPDGTVKLLIYDTSILYSGVPSRFSGSGSGTDYSLTISNLEPEDVATYYCQQYSNLPYTFGSGTKLEIKR
notes: as for B1
B9: CD8B246 (antibody, human IgG1, kappa, V domains shown)
VH: QVQLKESGPGILKPSQTLSLTCSFSGFSLSTSGMNVGWIRQPSGKGLEWLAHIWWDDDKYYNPSLKSQLTISKDTSRNQVFLKITSVDTADTATYYCARRGNYGNYEFAYWGQGTTLTVSS
VL: DIQMTQTTSSLSASLGDRVTISCRASQDIRNYLNWYQQKPDGTVKLLIYHTSRLHSGVPSRFSGSGSGTDYSLTISNLEQEDIATYFCQQGNTLPWTFGAGTKLELKR
notes: as for B1
B10: CD8B304 (antibody, human IgG1, kappa, V domains shown)
VH: QVTLKESGPGILKPSQTLSLTCSFSGFSLSTSGMNVGWIRQPSGKGLEWLAHIWWDDDKYYNPSLKSQLTISKDTSRNQVFLKITSVDTADTATYYCARRGNYGNYEFAYWGQGTTVTVSS
VL: DIQMTQTTSSLSASLGDRVTISCRASQDIRNYLNWYQQKPDGTVKLLIYHTSRLHSGVPSRFSGSGSGTDYSLTISNLDQEDIATYFCQQGNTLPWTFGAGTKLELKR
notes: as for B1
B11: CD8B268 (antibody, human IgG1, kappa, V domains shown)
VH: QVQLQQSGAELVKPGASVKLSCKASGYTFTVYTIHWVKQRSGQGLEWIGWFYPGSGNIKYNEKFKDKATLTADKSSHTVYMELSRLTSEDSAVYFCARHEDNHYYDGNSWFAYWGQGTLVTVSA
VL: DIQMTQSPASLSASVGQTVTITCRASGNIHNYLAWFQQKQGKSPQLLVYNAKTLADGVPSRFSGSGSGTQYSLKINSLQTEDFGNYYCQHFWNTPYTFGGGTKLEIKR
notes: as for B1
B12: CD8B350 (antibody, human IgG1, kappa, V domains shown)
VH: EVQLQQSGAELAKPGTSVKMSCKASGYTFAAYWINWLKQRPGQGLEWIGSINPSNGYTEYSQKFKDKAILTADKSSSTAYMQLSSLTSEDSAVYYCSRSGLYYTNHLAWCPYWGQGTTVTVSS
VL: DIVMTQSPASLSASVGETVTITCRASGNIHNYLAWYQQKQGKSPQVLVYNAETLADSVPSRFSGSGSGTQFSLKINSLQPEDFGNYYCQHFWNSPLTFGGGTKLEIKR
notes: as for B1
B13: CD8B273 (antibody, human IgG1, kappa, V domains shown)
VH: QVQLQQSGAELVKPGASVKLSCKASGYTFTEYTIHWVKQRSGQGLEWIGWFYPGTGSIKYNEKFKDKATLTADKSSHTVYMELSKLTSEDSAVYFCARHEDNHYYDGNSWFAYWGQGTLVTVSA
VL: DIQMTQSPASLSASVGETVTITCRASGNIHNYLAWFQQKQGKSPQLLVYNAKTLADGVPSRFSGSGSGTQYSLKINSLQAEDFGSYYCQHFWSTPYTFGSGTKLEIKR
notes: as for B1
B14: CD8B312 (antibody, human IgG1, kappa, V domains shown)
VH: QVQLQQPGADLVKPGASVKLSCKASGYTFTSFWMHWVKQRPGQGLEWIGNVDPSDSQTHYNQKFKDKATLTVDKSSNTAYMQLSSLTSEDSAVYYCARSTYYRYDGPFTYWGQGTTVTVSS
VL: DIVLTQSPATLSVTPGDSVSLSCRASQSINNNLHWYQQKSHESPRLLIKYTSQSISGIPSRFSGSGSGPDFTLSINSVETEDFGMYFCQQSNSWPLTFGGGTKLEIKR
notes: as for B1

T1 sequence (P01732 22-235, chain 1 of 2): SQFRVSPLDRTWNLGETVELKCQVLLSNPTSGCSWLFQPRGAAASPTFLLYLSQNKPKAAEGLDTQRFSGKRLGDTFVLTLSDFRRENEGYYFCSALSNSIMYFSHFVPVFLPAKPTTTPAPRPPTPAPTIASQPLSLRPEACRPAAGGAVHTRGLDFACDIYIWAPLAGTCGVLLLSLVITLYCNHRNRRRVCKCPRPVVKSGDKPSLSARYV
T1 sequence (P10966 22-210, chain 2 of 2): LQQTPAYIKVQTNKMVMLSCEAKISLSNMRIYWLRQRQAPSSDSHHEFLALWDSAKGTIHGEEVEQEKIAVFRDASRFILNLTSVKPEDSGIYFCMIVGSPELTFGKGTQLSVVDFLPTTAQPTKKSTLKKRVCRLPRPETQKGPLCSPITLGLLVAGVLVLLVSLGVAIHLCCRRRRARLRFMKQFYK

The experiment concerns the target T1, human CD8 on human pan T cells (CD4-negative population) (human, UniProt P01732 22-235; P10966 22-210).
T1 construct: whole, on cells; Endogenous CD8 on primary human pan T cells, read in the CD4-negative gate; also called CD8α/β
Description: flow cytometry, 20 nM antibody on human pan T cells, A647 anti-human IgG Fc; geomean ratio in CD4-negative population. (A flow cytometer gives signals particle by particle.)
Description: Cell binding. […] Percent CD8 positive population was calculated by percentage of CD8-positive cell count/live cell count.
Take B1: the “Cell Binding to Human PanT Signal/Background (of CD4 negative population)” value turned out to be 1200.
The same measure for B2: 777; for B3: 26.
In the case of B4, the “Cell Binding to Human PanT Signal/Background (of CD4 negative population)” value is 37.
Take B5: the “Cell Binding to Human PanT Signal/Background (of CD4 negative population)” value was found to be 1180.
Take B6: the “Cell Binding to Human PanT Signal/Background (of CD4 negative population)” value was 1490.
To B7 belongs 29.
Take B8: the “Cell Binding to Human PanT Signal/Background (of CD4 negative population)” value is 911.
To B9 belongs 1110.
For the molecule B10, the “Cell Binding to Human PanT Signal/Background (of CD4 negative population)” value is 923.
The same measure for B11: 1170; for B12: 537.
The same measure for B13: 938; for B14: 1090.
